The values below come from publication doi:10.1101/2024.01.23.576890 (bioRxiv, 2024).

In this test the target is native OspA on the surface of live B. burgdorferi B31 (Borrelia burgdorferi strain B31 …, UniProt P0CL66). Nature of the test: flow cytometry on cells.
Chain of native OspA on the surface of live B. burgdorferi B31 (P0CL66 17-273): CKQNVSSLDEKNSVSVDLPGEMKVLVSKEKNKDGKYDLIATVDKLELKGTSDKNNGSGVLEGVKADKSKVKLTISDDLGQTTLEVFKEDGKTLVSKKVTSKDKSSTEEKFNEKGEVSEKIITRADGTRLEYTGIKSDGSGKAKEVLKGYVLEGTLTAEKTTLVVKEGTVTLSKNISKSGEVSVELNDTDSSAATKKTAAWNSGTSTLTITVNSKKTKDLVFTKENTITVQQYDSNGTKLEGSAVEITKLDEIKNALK

B1: LA-2 (bin 3 OspA monoclonal antibody; chimeric LA-2 IgG1) (antibody, V domains shown)
VH: QIQLVQSGPELKKPGETVKISCKASGYTFTDYSMYWVKQAPGKGLKRMGWINTETGEPTYADDFKGRFALSLDTSASTAYLHISNLKNEDTATYFCARGLDSWGQGTSVTVSS
VL: DIQMTQSPSSLSATLGGKVTITCKASQDINKYIAWYQHKPGKGPRLLIHYTSTLQPGNPSRFSGSGSGRDYSFSISNLEAEDIAIYYCLQYDNLQRTFGGGTKVEIK
For the molecule B1, the binding result is “binds”.
